A short description of this data set: soluble on expression in E. coli; label from the status in PepcDB or PDB records.
For “MQQKLENIKFVITDVDGVLTDGQLHYDANGEAIKSFHVRDGLGIKMLMDADIQVAVLSGRDSPILRRRIADLGIKLFFLGKLEKETACFDLMKQAGVTAEQTAYIGDDSVDLPAFAACGTSFAVADAPIYVKNAVDHVLSTHGGKGAFREMSDMILQAQGKSSVFDTAQGFLKSVKSMGQLEHHHHHH”, the “soluble on expression in E. coli” value is reported as “soluble”.
The result for “QPAQSGAFLVDQSQLTQSSILIGHQGGQLSNPDYPELSVMNGVINGFGGRLFNEIRSRQGLAYSVYGVWSPRYDYDGQFIAGGSTRTEATVPFITAMKGEIKRLQTELITPAELAYAKDSILNSFVFNFEDPGQTLSRLMRYEYYGYPEDFIFQYQREVEATTIEDVQRVAQTYLKPEQLTVLVVGN” reads “not soluble”; that for “MNMIDQLNITDFQVFTDENSDKFVSKIYKFSSKMILSDFHAQPQGFLNGGASLALAEITAGMASNAIGSGQYFAFGQSINANHLNPKKCEGFVNARGLLLKNGKRNHVWEIKITDENETLISQITVVNALVPQKNSDKLEHHHHHH”, “soluble”.
The result for “MSLKTMKFILACVLLLSPLLCQAQKNLFNKYNDMKGVSSVYISKAMMELNPNLFMKDLYIGKVAEHLNSVQVLSTHDNKVREEMAKDIRSLVQSSKYELLMKQKSTVSGSEVYVNRKGSKVKELIMVMNGASSLKFVYMEGDMTTDDIKKLMLYQSTSQNEGHHHHHH” reads “not soluble”.
The result for “MSLGQEEAGKLLDSLAEPSKKAYRINSLKEGAVVYPQEEAVPGIPNAYYGEVSGKDPEWTAGLVYSQDPAAMFPAQAIPVKPGDKVLDLCAAPGGKSTALAQKLQGEGLLVANEISPSRAKILRENLERWGVSNAVVTNCDSFALSARFPGFFDAILVDAPCSGEGMFRKSEDAIKYWSQENVDLCADRQREILTEAVKMLKPGGYLLYSTCTFSPEEDEEIVSWLLDEYGFKLLPIAAEKAAPGRPEWGNGDASLANCARFWPQDGVGEGQFVASLQKAAGEESFAAEAGEVFSPVRKNKDKKKKGKGKNKGNRSSLERPSKEESCYISEAIAGFNWPESLASWPSQMLKSQDHVFVPALEPEQLKGIKVLSNGLELGILKKKRFEPSHQLAEVLGQVDQERVVDLTEEEYDHYLHGESLQVNSSLKGFVLVSCRGMIFSFGKLSGKGQLKNYYPKGLRQKGIITITTDPNSSSVDKLAAALEHHHHHH” reads “soluble”; that for “NKNLWATIRGNFTYASSKFSKYEEPDYSATPWRSKIGTKLSQEFGLIAERLFVDEEDVANSPKQQFGEYMAGDIKYKDINHDGIIDEQDRVPIGYPTTPEIIYGFGFSIGYKDFDFNCFFQGSSRSSFFISPADISPFIQPNDPNNELGGKQATNALLQIVADDHWSEANQNMYAFWPRLSDTAISNNNQKSTWWLRDGTFLRMKSAEIGYTLPKRISSKAKLENFRIYVSGTNLFNISKFKTWDTEMGGNGLGYPVQRVFNIGVQLSL”, “not soluble”; that for “MTWNTCSLCVTSELMNTLDEAKIPLQKAVNYHEQSQNRQFRITLITKCLENQENPEKSEVSVNFFVDLKELVPSCAYFEKFDGLSYVEFSTNCKSTWISAPESVAAPHEDCSHRFQSPIISRNFHAFLDSVCPSLYGIRPTPLTLSSIVPVLDMLSHFHSEPLLTNCERFLMSTNIGHLDGNHLIRLLDKGLCVSLDHRILGRILCICLMSPQAKMSDSSQELAGTIGSVFAQAFVALVYQKLMVKCEENSNLLIEKSKKSIFDGIFMENLKKKLIFHNFYEYSNISKSFRHIKPLEQESSLWPMAMRNLLIPGALGANSSSSKGSSEEKIGNKKRKRQECDHNEESFECILCFDQRCGKCKGEAAFCYKALDNFLYEIRLQLYPHTYRPHLDRDLLREERLSDYILRNQFQPLPDAN”, “not soluble”.
Regarding “HYIFPHARIKITRDSKDHTVSGNGLGIRIVGGKEIPGHSGEIGAYIAKILPGGSAEQTGKLMEGMQVLEWNGIPLTSKTYEEVQSIISQQSGEAEICVRLDLNM”, the “soluble on expression in E. coli” value is reported as “soluble”.
Then “MDELLNRLRQTWHSTIPVSEFMQIAPLSFTDGELSVSAPLAPNINLHHTMFAGSIYTIMTLTGWGMVWLQQQLLNVDGDIVLADAHIRYLAPVTSAPEVKVRWPDTNLSPLQRGRKAKVKLEVQLFCDGKLCAQFDGLYVSVPKMLEHHHHHH”, with “soluble”; and “MGSSHHHHHHSSGRENLYFQGHMQWETVIGLEIHAQLATQSKIFSGSSTAFGAAPNTQASLVDLAMPGTLPVLNEEAVRMACLFGLAIDARIDRQNVFARKNYFYPDLPKGYQTSQMDHPIVGKGHLDITLEDGTTKRIGITRAHLEEDAGKSLHEDFQGMSGIDLNRAGTPLLEIVSEPDIRSAKEAVAYVKAIHALVRYLGICDGNMAEGSLRCDCNVSVRPKGQAEFGTRAEIKNVNSFRFIEKAINHEIQRQIELIEDGGKVVQETRLYDPNKDETRSMRGKEEANDYRYFPCPDLLPVVIEPEYLAKLREQLPELPVQKRERFESQYGLSAYDASVLSASREMADYFEKVQGICGDAKLAANWVMVELGSLLNKDGLEIEQSPVSAEQLGGMILRIKDNTISGKLAKMVFEAMANGEGSADQIIEAKGLKQVTDSGAIEKMLDEVLAANAEQVEQYRAADEAKRGKMFGFFVGQAMKASKGKANPQQVNELLKKKLEA”, with “soluble”; and “MGSDKIHHHHHHMLLSRVAESLYWINRYLERAENISRFVEVSESMALDCPPGSAEPWLPLVDASGDRNKFDESYLNKTPSDVANFLIKDRENPNSILSCICMARENARQIRDVITSEMWEQINSLYWSIQEGEVIWHQPAQEQLFEIRRGCQLFYGVTDATFSHDIAWNFSKLGRLIERADKTSRILDVKYFLLLPNLKELGGALDELQWISLLRSAGAYQMFRISEQGSITPNAIASFLLLDPIFPRSVRFCLEGINESLSKIQNSPVSKKPNDLECLIGLLLSKWSFVRIDHLIKDGLHEAIDSLQIDLNKLHDLIHGIYFRNDKKFDFESLQG”, with “not soluble”.
“MSSSTSPFLRAISRLIKASFFALSKFSLNCMYKSIQAELLKITYLAFMVKAMIFIPKEKHVYSFGPDMKEVARAKPGEIIVFETLDALGGQIRSEEDTVEKIDFSRVNPATGPVYIEGAEKGKILKVKILEIEVNDRGVIVTAPGAGVLGDLVKAPKTKVCRIANGFVQFGEFKIPVRPMIGVIGVASPEEIPTGTPGRHGGNMDTNLITEGSTVYFPIFKDGAYLALGDLHAVMADGEVCVSACEVSGKVTVKTEVLSGSIEWPIVETSDAYYILVSEEDLEDAVREAVKQGVDILRRANELSWDEAYMLASLIMDVQISQLVDPRKTVRVRIPKQYLKMSLFLEHHHHHH”: the “soluble on expression in E. coli” value was “not soluble”.
With “MSRLPTTPCEQLKLDNQLCFALYSTSLQMTKVYKPLLQALGLTYPQYIAMLVLWERDGLTVGEISARMLTDPGSLTPLLKRLEGEGLITRTRSSEDERVVLLRLTDKGRALQRQAESIPACILESTGLDLPQLVALKDELLALRGNLQAPD”, the “soluble on expression in E. coli” value is “not soluble”.
The result for “MLIINKLNHAQKQLEKLNFIPQQADKVDFLASSSEFKARILQLINTAKSRIYLTALYFEQDEAGQQILAALYQAKLANPALDIQILVDWHRAQRGRIGEKTTSSNADWYANMKQQYNLPPEQEIAVWGVPINGREIFGVLHLKGFIFDDTILYSGASINNVYLQQFDRYRYDRYHTLENKVLADSLVTFLQQHILTDHAVNRLDNMQRPVTANIRPAIKAFRKQLTKQQYQFAEQPESNGLMLSPIAGLGRKNQLNKTIEALFYKTQNKLTICTPYFNFPRSLITRIKWLLENGKQVEIIAGDKKANDFYTPPDKKFTMAAALPYLYEKNLRAFAKRFDSYIQNKLLTIRLWKDGENTYHLKGLWVDNRYILLTGNNLNPRAWGLDAENGILLDDPKAELAEKAALELTQIRTFTQELSHYSDLETIKDYPLEVQKLLKKFGRVKLDKIIKMLLLEHHHHHH” reads “not soluble”.
Then “MSLEIKNVSKQIGDRKILDNISLTIDKGSLVVLIGSSGCGKTTTLKLINKLITPTSGEIFINGKSLAKENPIELRRNIGYVIQNNGLFPHLTIKENIELIPRLKKGKDVEKIEKTTLDLLNMVGLDPEIYLNKYPSELSGGQQQRVGFARAFATDAEIILMDEPFSALDPITRTSLQEELFNIQEELKKTIIFVTHDMDEALKIADKICIMNGGKIAQYDTPENILRNPANDFVRDFIGSDRVWNNPDFIKAKDIMIKNPVSVKGARTILQGIEIMRSNKVDSLLVIDKENVLKGIVTFKDIKITNEKSRALSEIMSENPLRVNEDDSLVDILTVMNENSVGFIPVVNSEEKLVGLITRSSLLSILSDQFLDMEVNIFEEGHHHHHH”, with “soluble”; and “MGLNDNKAGMEGLDKEKINKIIMEATKGSRFYGNELKKEKQVNQRIENMMQQKAQITSQQLRKAQLQVDRFAMELEQSRNLSNTIVHIDMDAFYAAVEMRDNPELKDKPIAVGSMSMLSTSNYHARRFGVRAAMPGFIAKRLCPQLIIVPPNFDKYRAVSKEVKEILADYDPNFMAMSLDEAYLNITKHLEERQNWPEDKRRYFIKMGSSVENDNPGKEVNKLSEHERSISPLLFEESPSDVQPPGDPFQVNFEEQNNPQILQNSVVFGTSAQEVVKEIRFRIEQKTTLTASAGIAPNTMLAKVCSDKNKPNGQYQILPNRQAVMDFIKDLPIRKVSGIGKVTEKMLKALGIITCTELYQQRALLSLLFSETSWHYFLHISLGLGSTHLTRDGERKSMSVERTFSEINKAEEQYSLCQELCSELAQDLQKERLKGRTVTIKLKNVNFEVKTRASTVSSVVSTAEEIFAIAKELLKTEIDADFPHPLRLRLMGVRISSFPNEEDRKHQQ”, with “soluble”.
The result for “MGSDKIHHHHHHMTIFERSKKGRKAFRLPESDIPEYSLPDRFLRRTPPELPEVSEPDLVRHYTNLARKNYSVDLGIYPLGSCTMKYNPKLNEKAANLEGFREIHPYQPVETVQGSLRLMYELKKMLCEITGMDDMTLQPAAGAHGELTGMLIVREYFKNRGDTGRKKVLVPDSAHGTNPASASMVGFEVVEIKSKNGMVDVEDLKKLLDEEVAAVMLTNPNTLGLFEKDILKIAEMTHECGALLYYDGANLNAIMGKVRPGDMGFDIVHLNLHKTFSTPHGMGGPGSGPVGVKKHLVDFLPFPQVKKNGELYELFVPEKTIGRVRSFFGNFPVLVKAYTYILTMGRDGLERVSEMAVLNANYLKKKIEKFLEIPYNGFCMHEFVASAEKVFRETGVRTLDIAKRILDFGVHPPTVYFPLIVPEALMIEPTETENKETLDKYAEILERVVKEAYENPDALKNAPHNTPVRRVNEVLASKKPVFRWRG” reads “not soluble”; that for “MLKSVLGKFSVGDKMIEVTFLGAGGGRFVTITQVRSTGGFFIKASKNIFVDPGPGALIRMIRYKLDPRKIDVLFISHRHTDHCNDAEVIVEGMTYGVTKRRGILIGSRSVVHGDDAHTPALSKYHLEALEEVHAPNPGDRFKLGNEDMVITPSVHSDPTTIGFRLKTNFGDISYIADTEYFEGLEEWHDGTRVLIASVTRPRDMKIPYHLSTDDVVYMLKKMKEKPEVLIMTHLGMKMHFAGPYKEAEYIQNVTGVKTYVAKEGFRITIGKEIHVKTLRPVRFVLEHHHHHH”, “soluble”; that for “MGHHHHHHSHMKALSPVRGCYEAVCCLSERSLAIARGRGKGPAAEEPLSLLDDMNHCYSRLRELVPGVPRGTQLSQVEILQRVIDYILDLQVVLAEPAPGPPDGPHLPIQTAELAPELVISNDKRSFCH”, “not soluble”.
Regarding “MPRLTDDDKKLLLMLAREAIVTYVREGITPATELSVPSLCEHYGCFVCIKKGGELRGCIGNFTSSQPLYQLVREMAVSAATRDPRFYPMTSKDITDFSLEISVLSPLEKISSPEQITVGTHGIYIEKNFFRGVLLPQVATEYGWDRDTFLMQTCVKAGLKPDDWRDGADIYIFSAEVFSLEHHHHHH”, the “soluble on expression in E. coli” value is on record as “not soluble”.

Values taken from the DeepSol protein solubility set.
